Numbering of substitutions follows the chain as printed.
B1: Mutant enzyme Sequence information 3: mutant having Sequence 3 (SEQ ID NO: 3), 78.5% amino acid sequence identity to Sequence 1 (protein)
chain: MNIGCHGLVWTGTFDADGIRLAVEKTKQAGFDLIEFPLMDPFSFDVAAAQAALAEHGLAVSASLGLSDETDITSSDPAVVAAGEALLLRAVDVLAELGGTHFCGVIYSAMKKYMDPVTPEGLASSRRTIARVADHAAERGVSVSLEVVNRYETNVLNTARQALAYLGEVDRPNLGIHLDTYHMNIEESDMFAPVLDAAPALRYVHIGESHRGYLGTGTVDFDTFFKALGRIGYDGPIVFESFSSAVVAPDLSRMLGIWRNLWTDNDELGAHANAYIRDKLVAVDSIRLH
B2: Ketose 3-epimerase mutant 3: amino acid-substituted mutant of SEQ ID NO: 1 (protein)
chain: MKIGCHGLVWTGRFDAEGIRYSVQKTKEAGFDLIEFPLMDPFSFDVATAKSALAEHGLTASASLGLSEATDVSSEDPAIVKAGEELLNRALDVLAELGATEFCGVIYSAMKKYMEPATEQGLSNSKAAIGRVVDRAAGLGINVSLEVVNRYETNVLNTGRQALSYLSDVKRPNLGVHLDTYHMNIEESDMFSPVLDTAEVLKYVHIGESHRGYLGTGSVDFDNFFKALGRIGYDGPVVFESFSSAVVAPDLSRMLGIWRNLWADNEELGAHANAFIRDKLTAIKTIELH
modifications: Arthrobacter histidinolovorans
B3: Ketose 3-epimerase mutant 4: amino acid-substituted mutant of SEQ ID NO: 1 (protein)
chain: B2 chain with T59S, A60V, E101D, I129V, S218N
modifications: Arthrobacter histidinolovorans
B4: Ketose 3-epimerase mutant 6: amino acid-substituted mutant of SEQ ID NO: 1 (protein)
chain: B2 chain with E101D, I129V, V200A, S218N
modifications: Arthrobacter histidinolovorans
B5: Ketose 3-epimerase mutant 5: amino acid-substituted mutant of SEQ ID NO: 1 (protein)
chain: B2 chain with T59S, A60V, E101D
modifications: Arthrobacter histidinolovorans

Legend:
[1] = test system: ketose 3-epimerase (present enzyme, purified enzyme of wild strain); experiment: Substrate specificity of ketose 3-epimerase using 8 kinds of ketohexoses; format: biochemical, Arthrobacter histidinolovorans Y586-1 strain; details: each substrate 0.1 M, phosphate buffer pH 8.0, 70° C., 10 min; epimerization activity for D-allulose = 100
Protocol: The substrate specificity of the present enzyme after purification was investigated using 8 kinds of ketohexoses. […] After a reaction at 70° C. for 10 minutes, the reaction mixture was analyzed by HPLC to measure a ketose produced by epimerization of each sugar.
Supposing that the epimerization activity for D-allulose is 100, the activity for each ketose is shown as a relative activity.

[2] = Optimum reaction temperature / relative activity at various reaction temperatures; format: biochemical; details: crude recombinant enzyme
Protocol: (§1) For the measurement of the activity of a ketose 3-epimerase as a crude enzyme and a purified enzyme, an enzyme reaction was made by performing an experiment similar to Experiment 4. An enzyme reaction was made for 10 minutes under various conditions and an enzyme amount preparing 1 μmol of D-fructose from D-allulose per minute was defined as 1 unit. After the reaction, the reaction mixture was put in a boiling liquid for 3 minutes to terminate the reaction. After deionization treatment, the D-fructose thus prepared was measured by HPLC analysis.
Reaction conditions are shown in Table 1 under which the reaction was made at various temperatures within from 50 to 80° C. to find an optimum temperature.

[3] = Ketose 3-epimerase activity ratio (T70/T50) at reaction temperature of 70° C. to 50° C.; format: biochemical; details: crude recombinant enzyme; ratio of activity at 70° C. to activity at 50° C., 10 min reaction
Protocol: An enzyme having higher heat resistance than an amino acid substitution-free wild type enzyme can be obtained by introducing mutation into the gene of the ketose 3-epimerase of the present invention and substituting the corresponding amino acid residue with another amino acid residue by a site-directed mutagenesis operation to prepare various amino acid-substituted mutants. The heat resistance is evaluated by two indices, that is, a ketose 3-epimerase activity ratio (T70/T50) at the reaction temperatures of 70° C. to 50° C. and a residual activity after incubation at 60° C. for one hour.
Heat resistance of the present enzyme (crude recombinant enzyme) and the crude enzyme of the control enzyme was investigated by measuring an activity at 70° C. and an activity at 50° C. under the reaction conditions (10 minutes) used for determining the optimum temperature in the above 2 shown in Table 2 and finding their ratio (T70/T50).

[4] = Thermal stability: residual activity after incubation at 60° C. for one hour; format: biochemical; details: crude recombinant enzyme; for Residual activity (%): after incubation at 60° C. for 1 hour
Protocol: Thermal stability of the enzyme was investigated by measuring the activity of the enzyme after incubation at 60° C. for one hour and finding its relative activity supposing that the activity at 60° C. under the reaction conditions (10 minutes) used for determining the optimum temperature in the above 2 shown in Table 2 was 100. As heat treatment conditions, the crude enzyme solution, a buffer (50 mM tris-HCl, pH 7.5), and 2 mM MgCl2 were used to give a total amount of 200 p1 and after retaining at 60° C. for one hour, the reaction mixture was cooled for 10 minutes in ice water. The residual enzyme activity was then measured by the conventional method.
The activity of each of the present enzyme (crude recombinant enzyme) and the crude enzyme of the control enzyme after incubation at 60° C. for 1 hour was measured and a relative activity of it was determined supposing that the activity at 60° C. under the reaction conditions (10 minutes) for determining the optimum temperature in the above 2 shown in Table 2 is 100. The relative activity was used as a heat resistance index of the enzyme. As heat treatment conditions, the crude enzyme solution, a buffer (50 mM tris-HCl, pH 7.5), and 2 mM MgCl2 were used to give a total amount of 200 p1 and after retaining at 60° C. for one hour, the reaction mixture was cooled for 10 minutes in ice water. The residual enzyme activity was measured by the conventional method.

[5] = Ketose 3-epimerase activity of crude enzyme (D-allulose to D-fructose, HPLC); format: biochemical; details: crude recombinant enzyme
Protocol: The activity of an enzyme ketose 3-epimerase before purification was obtained by measuring the preparation amount of D-fructose with D-allulose as a substrate. More specifically, an enzymatic reaction solution composed of a 50 mM tris-HCl buffer (pH 7.5), 0.1 M D-allulose, an enzyme solution, and 2 mM magnesium chloride is reacted at 70° C. for 10 minutes. The reaction mixture is boiled for 2 minutes to terminate the reaction and the solution composition after the reaction is measured by HPLC. One unit of enzyme activity is defined as an enzyme amount that epimerizes D-allulose to prepare 1 μmol of D-fructose per minute under the above-described conditions. An enzyme unit for epimerization of D-fructose into D-allulose, which is a reverse reaction, is also measured under similar conditions and defined similarly.
as §1, with “analysis. […]” for “analysis.”

[6] = activity at optimum temperature = 100

Row | Molecule | Relative activity (%) [1] | T70/T50 [3] | Residual activity (%) [4] [%] | further results
1 | O=C(CO)[C@H](O)[C@H](O)[C@H](O)CO [D-allulose] | 100.0% | – | – | –
2 | O=C(CO)[C@@H](O)[C@H](O)[C@H](O)CO [D-fructose] | 43.4% | – | – | –
3 | O=C(CO)[C@H](O)[C@@H](O)[C@H](O)CO [D-sorbose] | trace | – | – | –
4 | O=C(CO)[C@@H](O)[C@@H](O)[C@H](O)CO [D-tagatose] | 72.2% | – | – | –
5 | O=C(CO)[C@@H](O)[C@@H](O)[C@@H](O)CO [L-allulose] | 27.1% | – | – | –
6 | O=C(CO)[C@H](O)[C@@H](O)[C@@H](O)CO [L-fructose] | trace | – | – | –
7 | O=C(CO)[C@@H](O)[C@H](O)[C@@H](O)CO [L-sorbose] | trace | – | – | –
8 | O=C(CO)[C@H](O)[C@H](O)[C@@H](O)CO [L-tagatose] | 59.2% | – | – | –
9 | B1 | – | 2.11 | – | Optimum enzyme reaction temperature ([2]; 10 min, 2 mM magnesium chloride, pH 7.5): 70° ° C.; Relative activity at 60° C. (%) [2, 6]: 75.8%; Relative activity at 70° C. (%) [2, 6]: 100.0%; Relative activity at 80° C. (%) [2, 6]: 31.2%; Residual activity after incubation at 60° C. for 1 hour ([4]; activity at 60° C. (10 min reaction) = 100, unit not given): 38.2; Total activity per 100 mL of culture liquid (optimum reaction temperature) [5]: 1201 U
10 | B2 | – | 2.11 | 94.5 | –
11 | B3 | – | 2.08 | 123.2 | –
12 | B4 | – | 2.05 | 101.2 | –
13 | B5 | – | 2.07 | 85.1 | –

— patent US20210395718A1, “NOVEL KETOSE 3-EPIMERASE” (NATIONAL UNIVERSITY CORPORATION KAGAWA UNIVERSITY, priority 2018, published 2021)
